Assay [1] concerns the target T1, Recombinant Rhesus macaque VEGFR2/KDR Protein, His tag (rhesus macaque).
T1 construct: Expressed in HEK293, bought from ACRO Biosystems; also called rhesus VEGFR2-his; rhesus VEGFR2
T1 chain: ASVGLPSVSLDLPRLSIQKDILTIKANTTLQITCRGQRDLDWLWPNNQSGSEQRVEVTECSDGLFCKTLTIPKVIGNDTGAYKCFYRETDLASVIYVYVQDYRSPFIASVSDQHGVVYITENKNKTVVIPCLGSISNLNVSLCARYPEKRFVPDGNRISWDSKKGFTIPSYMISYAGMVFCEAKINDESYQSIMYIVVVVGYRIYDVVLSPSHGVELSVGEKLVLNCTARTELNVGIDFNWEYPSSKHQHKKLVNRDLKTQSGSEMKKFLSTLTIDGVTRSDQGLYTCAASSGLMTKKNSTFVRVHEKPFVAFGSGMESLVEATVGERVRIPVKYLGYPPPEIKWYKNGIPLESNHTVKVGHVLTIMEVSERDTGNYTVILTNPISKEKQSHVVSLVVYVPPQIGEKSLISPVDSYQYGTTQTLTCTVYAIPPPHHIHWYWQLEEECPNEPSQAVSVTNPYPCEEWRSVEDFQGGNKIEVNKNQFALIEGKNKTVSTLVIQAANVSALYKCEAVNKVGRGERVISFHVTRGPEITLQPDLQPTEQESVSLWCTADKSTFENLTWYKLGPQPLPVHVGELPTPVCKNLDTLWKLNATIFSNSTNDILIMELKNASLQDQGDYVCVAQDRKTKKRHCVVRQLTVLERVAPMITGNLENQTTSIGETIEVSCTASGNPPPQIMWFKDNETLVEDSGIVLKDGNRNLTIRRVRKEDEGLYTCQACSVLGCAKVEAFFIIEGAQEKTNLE
Kind of assay: ELISA, rhesus VEGFR2-his coated, anti-human Fc-HRP. The procedure: (§1) Same protocol of Example 2 antibody screening by ELISA assay. Briefly, 0.5 μg/ml hVEGFR2-his was coated and serially diluted purified antibodies would bind to coated antigen. Using HRP conjugated goat anti-mouse Fc antibody could detect binding signals of each antibody.
(§2) Same protocol of Example 4 except using HRP conjugated goat anti-human Fc antibody as secondary antibody. Binding to hVEGFR2-his and rhesus VEGFR2-his (Acrobiosystems, Cat #VE2-C52H3) were also analyzed head-to-head.
Background: An ELISA detects its analyte on a solid surface through an enzyme-linked reagent.

Assay [2] has as its target T2, Recombinant Human VEGFR2/KDR Protein, His tag (hVEGFR2-his) (human, UniProt P35968 20-764).
T2 construct: Expressed in HEK293, bought from ACRO Biosystems; also called human VEGFR2-his; Human VEGFR2/KDR-His
The assay is described as follows: ELISA, hVEGFR2-his coated (0.5 ug/ml), anti-human Fc-HRP. The procedure:
as §1, §2

Assay [3] addresses T3, human VEGFR2 on HUVEC cells (human, UniProt P35968 20-1356).
T3 construct: also called hVEGFR2 on HUVEC
The assay is described as follows: flow cytometry on HUVEC cells, percent shifted cells (Shift %), anti-human IgG-PE. (In general: Flow cytometry measures light scatter and fluorescence of single cells or particles in a stream.)

Assay [4] addresses T2, Recombinant Human VEGFR2/KDR Protein, …. The assay is described as follows: competition ELISA: VEGF-A coated (0.25 ug/ml), antibody mixed with VEGFR2, detection with mouse anti-VEGFR2 serum and anti-mouse Fc-HRP; blocked ligand VEGF-A. The procedure:
(§3) For this assay, 0.25 μg/ml VEGF-A was coated on ELISA plate before a mixture of chimeric antibodies and VEGFR2 were added. To detect free VEGF-A (not bind to VEGFR2), 1:1000 diluted mouse serum (mouse previous immunized with human VEGFR2) were added and HRP conjugated goat anti-mouse Fc antibody was used as secondary antibody.

For assay [5] the target is unchanged. The assay is described as follows: ELISA, hVEGFR2-his coated, anti-human Fc-HRP. Here is the method: as §2
(§4) Same protocol of Example 9.

The target is the same in assay [6]. Kind of assay: SPR (Biacore), antibody captured by anti-Fc, antigen 2.5-80 nM. Here is the method: A CM5 sensor chip was activated in each flow cell by 7-min injection (10 μl/min) of freshly prepared 1:1 50 mM N-hydroxysuccinimide (NHS): 200 mM 1-ethyl-3-(3-dimethylaminopropyl)-carbodiimide (EDC). Then anti-human Fc antibody (GE Healthcare) in a concentration of 10 μg/ml in 10 mM sodium acetate buffer PH 5.0 was injected onto the activated chip at 10 μl/min (HBS-EP running buffer: 10 mM HEPES, 150 mM NaCl, 3.4 mM EDTA, 0.005% surfactant P20, pH 7.4). The remaining active coupling sites were blocked by 7 min injection of 1M ethanolamine at 10 μl/min. The immobilization level of each flow cell is ˜9000RU. Antibodies were captured in FC2 by anti-human Fc IgG or anti-mouse Fc (GE Healthcare) to 200˜300RU. FC1 was used as the reference cell. Antigen was injected at varying concentrations (2.5 nM, 5 nM, 10 nM, 20 nM, 40 nM and 80 nM) after capture of antibody. The association time for antibody binding antigen is 180s. Surface Regeneration condition is 120s at 10 μl/min in Gly pH1.5. The signals with captured antibody subtracted from those without captured antibody were calculated with Biacore X100 evaluation software ver. 2.0 (Biacore).
In general terms: Surface plasmon resonance follows binding to a sensor surface in real time, without labels.

For another assay, the target named is T4, human VEGFR1 protein (human, UniProt P17948 27-756).
T4 construct: also called Sino Biological 10136-H08H
Kind of assay: ELISA, 1 µg/ml antigen coated, 1 µg/ml antibody. Here is the method: (§5) Briefly, 1 μg/ml human VEGFR1 (Sino Biological, cat #10136-H08H), VEGFR2 (Acrobiosystem, cat #KDR-H5227) and VEGFR3 (Sino Biological, cat #10806-H08H) protein were coated overnight at 4° C. 1 μg/ml humanized antibodies (48-H3L1 and 54-H2L1, produced in CHO cells or Ramucirumab from Eli Lilly Germany, lot #20150819) were added for binding to coated antigen. Secondary antibody HRP conjugated goat anti-human Fc antibody were added for detection of binding signal.

The target of another assay is T5, human VEGFR3 protein (human, UniProt P35916 25-776).
T5 construct: also called Sino Biological 10806-H08H
T5 sequence (looked up): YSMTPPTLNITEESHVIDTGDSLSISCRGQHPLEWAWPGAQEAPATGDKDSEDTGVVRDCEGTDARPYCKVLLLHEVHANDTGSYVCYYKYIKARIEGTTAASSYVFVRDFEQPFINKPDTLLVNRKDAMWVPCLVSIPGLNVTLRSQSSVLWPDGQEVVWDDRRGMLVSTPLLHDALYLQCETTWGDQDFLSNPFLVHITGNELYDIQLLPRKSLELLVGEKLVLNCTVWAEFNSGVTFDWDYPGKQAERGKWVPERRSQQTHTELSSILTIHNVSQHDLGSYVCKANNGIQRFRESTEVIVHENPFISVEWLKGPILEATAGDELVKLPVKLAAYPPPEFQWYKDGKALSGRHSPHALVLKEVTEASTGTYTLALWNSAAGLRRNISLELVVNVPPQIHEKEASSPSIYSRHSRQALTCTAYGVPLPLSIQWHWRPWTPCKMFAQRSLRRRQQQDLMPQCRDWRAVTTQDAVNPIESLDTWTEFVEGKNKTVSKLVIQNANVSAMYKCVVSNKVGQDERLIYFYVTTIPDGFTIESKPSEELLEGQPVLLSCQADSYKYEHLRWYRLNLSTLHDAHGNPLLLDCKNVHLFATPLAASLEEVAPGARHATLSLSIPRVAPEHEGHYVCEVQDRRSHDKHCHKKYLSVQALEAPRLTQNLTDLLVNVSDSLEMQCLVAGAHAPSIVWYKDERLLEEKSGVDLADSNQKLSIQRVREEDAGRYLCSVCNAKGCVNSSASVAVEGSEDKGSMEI
Kind of assay: ELISA, 1 µg/ml antigen coated, 1 µg/ml antibody. The procedure: as §5

Assay [7] has as its target T3, human VEGFR2 on HUVEC cells. The assay is described as follows: flow cytometry on HUVEC cells, MFI, anti-human IgG (H+L)-PE. The procedure:
Same methods with Example 11. Briefly, Log phase HUVEC cells were collected and added to each tube. Then 100 μl/tube serial diluted humanized antibodies in FACS buffer were added and kept at 4° C. for 1 hr. Binding of antibodies to HUVEC was detected by PE signal of the 2nd antibody (anti-hIgG (H+L)-PE), which was added after the 1st antibodies. (see FIG. 15).

Assay [8] concerns the target T2, Recombinant Human VEGFR2/KDR Protein, …. The assay is described as follows: ELISA, hVEGFR2-his coated, anti-human Fc-HRP; antibody made in 293T cells. Here is the method: as §2, §4
Assay [9] has the same target. The assay is described as follows: ELISA, human VEGFR2-his coated, anti-human Fc-HRP; antibody made in CHO cells.
Assay [10] deals with T1, Recombinant Rhesus macaque VEGFR2/KDR …. The assay is described as follows: ELISA, rhesus VEGFR2-his coated, anti-human Fc-HRP; antibody made in CHO cells.
Assay [11] has as its target T2, Recombinant Human VEGFR2/KDR Protein, …. The assay is described as follows: competition ELISA: VEGF-A coated (0.25 ug/ml), antibody titrated together with 1 ug/ml human VEGFR2, detection with mouse anti-VEGFR2 serum and anti-mouse Fc-HRP; blocked ligand VEGF-A. The procedure: as §3
(§6) Same protocol of Example 10. Briefly, 0.25 μg/ml VEGF-A was coated overnight at 4° C. After blocking, serial diluted 54-H2L1, 48-H3L1, Ramucirumab and 1 μg/ml human VEGFR2 or rhesus VEGFR2 were added at the same time for 2 hour-incubation. After wash, mouse serum containing polyclone VEGFR2 antibody and HRP conjugated goat anti-mouse Fc antibody were added for detection of free VEGF-A coated on the plates (see FIGS. 13A and 13B).

Assay [12] deals with T1, Recombinant Rhesus macaque VEGFR2/KDR …. The assay is described as follows: competition ELISA: VEGF-A coated (0.25 ug/ml), antibody titrated together with 1 ug/ml rhesus VEGFR2, detection with mouse anti-VEGFR2 serum and anti-mouse Fc-HRP; blocked ligand VEGF-A. Here is the method: as §3, §6

Where a chain is given by its changes, count along the chain named.

T4 sequence (P17948 27-756 limits assumed): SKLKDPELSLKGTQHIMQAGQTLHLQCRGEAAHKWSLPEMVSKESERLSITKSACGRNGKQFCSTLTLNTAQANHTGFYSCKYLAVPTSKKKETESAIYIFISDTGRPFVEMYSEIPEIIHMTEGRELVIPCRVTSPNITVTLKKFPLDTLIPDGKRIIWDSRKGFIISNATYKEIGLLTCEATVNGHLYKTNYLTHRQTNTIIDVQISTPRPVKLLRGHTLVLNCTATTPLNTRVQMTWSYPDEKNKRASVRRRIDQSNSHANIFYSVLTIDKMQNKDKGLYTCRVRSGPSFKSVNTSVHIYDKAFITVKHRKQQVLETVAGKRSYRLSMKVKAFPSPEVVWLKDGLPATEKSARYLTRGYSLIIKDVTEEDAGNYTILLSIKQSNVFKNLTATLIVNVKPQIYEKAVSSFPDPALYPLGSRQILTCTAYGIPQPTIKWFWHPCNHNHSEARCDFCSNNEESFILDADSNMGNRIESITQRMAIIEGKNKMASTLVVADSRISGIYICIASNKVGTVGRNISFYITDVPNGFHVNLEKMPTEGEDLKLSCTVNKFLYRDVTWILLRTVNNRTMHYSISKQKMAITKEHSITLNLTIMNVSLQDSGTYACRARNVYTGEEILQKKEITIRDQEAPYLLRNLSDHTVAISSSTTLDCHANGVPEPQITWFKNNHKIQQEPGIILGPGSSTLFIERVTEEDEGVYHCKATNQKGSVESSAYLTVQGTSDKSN

B1: 042C (chimeric 042) (antibody, V domains shown)
VH: EVQLVESGGDLVKPGGSLKLSCTASGFSFSIYGMSWVRQTPDKRLEWVASISVGGSYTYYADSVEGRFTISRENAKNTLYLQMNSLKSEDTALYYCARELDGNYDYWGQGTSLTVSS
VL: DIVITQNELSNPVTFGESVSISCRSSKSLLYKDGKTYLNWFLQRPGQSPQLLIYLMSTRASGVSDRFSGSGSGTDFTLEISRVKAEDVGVYYCQQLVEYPFTFGSGTKLEIK
notes: Chimeric antibody with human constant regions (vector pCP-Hck/Hcg1)
The EC50 is the midpoint of the concentration-response curve. Usually IC50 stands for the concentration needed to halve the response being measured. Turning to B1, the values for the concentration for a half-maximal effect (EC50) in [1], in assay [2] and in assay [3] were 0.0299 µg/mL, 0.015 µg/mL and 0.157 µg/mL, respectively. Also, the IC50 in assay [4] was 0.148 µg/mL.

B2: 054C (chimeric 054) (antibody, V domains shown)
VH: B1 VH with T23A, S28T, I31M, V53I, T69I, Y80F, S112T
VL: B1 VL with D1H, V3M, N7D, V90I
notes: as for B1
As a reminder, the Kd is the free concentration of one partner at which half of the binding sites on the other are occupied at equilibrium, for simple one-to-one binding. As usually defined, the koff is the rate constant with which the complex falls apart. Usually kon stands for a measure of how fast the partners come together. For the molecule B2, the EC50 in assay [5] was 0.0186 µg/mL; in [1] it was 0.0168 µg/mL; in assay [2] it was 0.0189 µg/mL; in [3] it was 0.0875 µg/mL. In assay [6], the equilibrium dissociation constant (Kd) stood at 2.45 nM. Also, the koff in assay [6] stood at 0.000113 s⁻¹. The kon in assay [6] came to 46000 M⁻¹ s⁻¹. Moreover, in assay [4], the concentration for half-maximal inhibition (IC50) stood at 0.1 µg/mL.

B3: 048C (chimeric 048) (antibody, V domains shown)
VH: B1 VH with T23A, S28T, I31M, V53I, Y80F, L100M, Q109H, S112T
VL: B1 VL with I2V, V3M, N7D, V90I
notes: as for B1
In the case of B3, the EC50 was found to be 0.00574 µg/mL in assay [5], 0.0101 µg/mL in assay [1] and 0.0053 µg/mL in [2]. In assay [4], the half-maximal inhibitory concentration (IC50) amounted to 0.09 µg/mL.

B4: 48-H3L1 (humanized Mab48) (antibody, human IgG1, V domains shown)
VH: EVQLVESGGGLVKPGGSLRLSCAASGFTFSMYGMSWVRQAPGKRLEWVASISIGGSYTYYADSVKGRFTISRDNAKNTLYLQMNSLRAEDTAVYYCAREMDGNYDYWGHGTTLTVSS
VL: B1 VL with N7D, N11L, E79K, K84E, V90I
notes: also called 48-H3L1 (CHO)
The term EC50 (read off the curve) denotes the concentration that produces a half-maximal response. Low readings indicate an effect from little substance, high ones a need for much substance. As for B4, the binding result with human VEGFR1 protein and with human VEGFR3 protein was “no binding (tested: 1 µg/ml)” throughout. For the same molecule, the “EC50 (read off the curve)” value in assay [7] was roughly 0.2 µg/mL. Moreover, the EC50 in assay [8] stood at 0.0205 µg/mL; in assay [9] it was 0.00899 µg/mL; in assay [10] it was 0.00864 µg/mL. Moreover, the IC50 in [11] was found to be 0.727 µg/mL; in assay [12], 0.833 µg/mL.

B5: 002C (chimeric 002) (antibody, V domains shown)
VH: QVQLQQSGPELVKPGASVKISCKASGYAFSSSWMNWVKQRPGEGLEWIGRIFPGDGDTYYNGKFQVKATLTADKSSSTAYMQLSSLTSEDSAVYFCAIFLDTSGRYVDYWGQGTTLTISS
VL: DIVMTQSHKFMSTSVGDRVSITCKASQDVNTAVAWYQQKPGQSPKLLIYSASYRYIGVPDRFTGSGSGTDFTFTISSVQSEDLTVYYCQQHYRAPLTFGSGTKLELK
notes: Mouse variable regions cloned into expression vector pCP-Hck/Hcg1 (human constant regions; detected with anti-human Fc)
For the molecule B5, the results for the EC50 in [1], in [2] and in assay [3] were 0.0209 µg/mL, 0.0308 µg/mL and 0.0823 µg/mL, respectively. The IC50 in assay [4] worked out at 2.11 µg/mL.

The record behind these values is patent US20240209099A1 (SUZHOU TRANSCENTA THERAPEUTICS, published 2024).
